Here are results for six molecules from patent US20250171512A1.

The experiment has as its target human FGFR1c together with human beta-Klotho (KLB), stably expressed on CHO Flp-In cells (human), P11362. In words: cell-based or functional assay.

Chain of human FGFR1c together with human beta-Klotho (KLB), stably expressed on CHO Flp-In cells (human), P11362 (P11362 22-822, chain 1 of 2): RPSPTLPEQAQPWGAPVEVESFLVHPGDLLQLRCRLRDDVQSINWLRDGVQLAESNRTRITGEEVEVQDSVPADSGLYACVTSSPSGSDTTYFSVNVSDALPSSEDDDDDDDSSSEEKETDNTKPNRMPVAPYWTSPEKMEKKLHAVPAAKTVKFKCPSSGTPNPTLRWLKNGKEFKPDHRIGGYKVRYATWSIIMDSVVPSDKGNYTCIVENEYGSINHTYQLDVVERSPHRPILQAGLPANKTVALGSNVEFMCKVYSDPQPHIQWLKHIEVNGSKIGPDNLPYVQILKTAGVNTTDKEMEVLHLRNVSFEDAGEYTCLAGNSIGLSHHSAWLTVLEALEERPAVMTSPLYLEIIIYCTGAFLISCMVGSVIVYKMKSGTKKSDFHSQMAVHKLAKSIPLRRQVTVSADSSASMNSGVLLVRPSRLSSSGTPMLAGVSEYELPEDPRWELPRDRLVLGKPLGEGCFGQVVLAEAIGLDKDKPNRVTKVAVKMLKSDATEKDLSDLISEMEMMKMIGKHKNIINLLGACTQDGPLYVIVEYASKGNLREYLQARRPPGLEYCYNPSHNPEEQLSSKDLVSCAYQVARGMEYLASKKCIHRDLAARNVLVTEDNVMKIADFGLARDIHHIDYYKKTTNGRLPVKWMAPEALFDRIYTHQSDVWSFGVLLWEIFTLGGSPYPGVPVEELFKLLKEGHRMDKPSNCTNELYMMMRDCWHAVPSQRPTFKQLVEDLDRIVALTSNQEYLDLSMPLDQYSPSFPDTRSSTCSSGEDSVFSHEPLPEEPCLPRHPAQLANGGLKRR
Chain of human FGFR1c together with human beta-Klotho (KLB), stably expressed on CHO Flp-In cells (human), P11362 (Q86Z14 whole entry, chain 2 of 2, further chain): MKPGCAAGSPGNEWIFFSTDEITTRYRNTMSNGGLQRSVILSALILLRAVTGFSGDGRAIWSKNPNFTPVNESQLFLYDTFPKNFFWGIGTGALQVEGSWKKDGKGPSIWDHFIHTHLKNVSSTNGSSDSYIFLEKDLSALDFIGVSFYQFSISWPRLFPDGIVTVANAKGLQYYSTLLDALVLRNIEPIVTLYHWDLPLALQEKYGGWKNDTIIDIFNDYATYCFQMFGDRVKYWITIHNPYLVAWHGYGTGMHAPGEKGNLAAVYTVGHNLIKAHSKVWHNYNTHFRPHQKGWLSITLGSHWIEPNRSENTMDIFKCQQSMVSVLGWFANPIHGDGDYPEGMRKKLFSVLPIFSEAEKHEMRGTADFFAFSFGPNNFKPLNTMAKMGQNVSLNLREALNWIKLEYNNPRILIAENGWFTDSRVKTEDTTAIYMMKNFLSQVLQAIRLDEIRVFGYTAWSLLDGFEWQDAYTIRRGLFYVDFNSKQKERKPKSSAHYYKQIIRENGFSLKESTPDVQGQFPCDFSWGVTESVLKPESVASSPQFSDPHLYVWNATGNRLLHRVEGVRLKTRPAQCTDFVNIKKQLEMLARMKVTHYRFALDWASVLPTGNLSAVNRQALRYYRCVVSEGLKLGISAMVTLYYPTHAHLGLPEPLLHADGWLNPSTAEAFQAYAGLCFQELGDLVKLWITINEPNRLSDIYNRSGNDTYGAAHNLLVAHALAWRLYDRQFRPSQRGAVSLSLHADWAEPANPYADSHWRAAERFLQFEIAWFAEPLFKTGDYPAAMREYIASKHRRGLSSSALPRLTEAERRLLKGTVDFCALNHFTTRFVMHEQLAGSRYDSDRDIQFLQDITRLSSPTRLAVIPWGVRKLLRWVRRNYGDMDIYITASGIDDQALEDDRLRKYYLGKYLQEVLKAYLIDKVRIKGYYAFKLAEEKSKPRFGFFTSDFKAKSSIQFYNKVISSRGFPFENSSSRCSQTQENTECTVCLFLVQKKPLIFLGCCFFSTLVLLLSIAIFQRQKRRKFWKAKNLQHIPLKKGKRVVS

B1: FGF21 N149-D155 deleted and replaced by GSGS (SEQ ID NO: 143), Q9NSA1 29-209 (ligand)
chain: GHPIPDSSPLLQFGGQVRQRYLYTDDAQQTEAHLEIREDGTVGGAADQSPESLLQLKALKPGVIQILGVKTSRFLCQRPDGALYGSLHFDPEACSFRELLLEDGYNVYQSEAHGLPLHLPGGSGSPAPRGPARFLPLPGLPPAPPEPPGILAPQPPDVGSSDPLSMVGPSQGRSPSYAS
B1 gave a pERK ICW EC50 of 0.28 nmol/L.

B2: FGF21 N149-D155 deleted and replaced by ATTS (SEQ ID NO: 145), Q9NSA1 29-209 (ligand)
chain: GHPIPDSSPLLQFGGQVRQRYLYTDDAQQTEAHLEIREDGTVGGAADQSPESLLQLKALKPGVIQILGVKTSRFLCQRPDGALYGSLHFDPEACSFRELLLEDGYNVYQSEAHGLPLHLPGATTSPAPRGPARFLPLPGLPPAPPEPPGILAPQPPDVGSSDPLSMVGPSQGRSPSYAS
In the case of B2, the pERK ICW EC50 came out at 0.02 nmol/L.

B3: FGF21 K150H, P152L (SEQ ID NO: 140), Q9NSA1 29-209 (ligand)
chain: GHPIPDSSPLLQFGGQVRQRYLYTDDAQQTEAHLEIREDGTVGGAADQSPESLLQLKALKPGVIQILGVKTSRFLCQRPDGALYGSLHFDPEACSFRELLLEDGYNVYQSEAHGLPLHLPGNHSLHRDPAPRGPARFLPLPGLPPAPPEPPGILAPQPPDVGSSDPLSMVGPSQGRSPSYAS
As to B3, the pERK ICW EC50 was 0.13 nmol/L.

B4: FGF21 R163H (SEQ ID NO: 141), Q9NSA1 29-209 (ligand)
chain: GHPIPDSSPLLQFGGQVRQRYLYTDDAQQTEAHLEIREDGTVGGAADQSPESLLQLKALKPGVIQILGVKTSRFLCQRPDGALYGSLHFDPEACSFRELLLEDGYNVYQSEAHGLPLHLPGNKSPHRDPAPRGPAHFLPLPGLPPAPPEPPGILAPQPPDVGSSDPLSMVGPSQGRSPSYAS
In turn, B4 had a pERK ICW EC50 of 0.39 nmol/L.

B5: FGF21 P158H, R159H (SEQ ID NO: 142), Q9NSA1 29-209 (ligand)
chain: GHPIPDSSPLLQFGGQVRQRYLYTDDAQQTEAHLEIREDGTVGGAADQSPESLLQLKALKPGVIQILGVKTSRFLCQRPDGALYGSLHFDPEACSFRELLLEDGYNVYQSEAHGLPLHLPGNKSPHRDPAHHGPARFLPLPGLPPAPPEPPGILAPQPPDVGSSDPLSMVGPSQGRSPSYAS
Molecule B5 had a pERK ICW EC50 of 0.84 nmol/L.

B6: FGF21 N149-D155 deleted and replaced by GSHSG (SEQ ID NO: 144), Q9NSA1 29-209 (ligand)
chain: GHPIPDSSPLLQFGGQVRQRYLYTDDAQQTEAHLEIREDGTVGGAADQSPESLLQLKALKPGVIQILGVKTSRFLCQRPDGALYGSLHFDPEACSFRELLLEDGYNVYQSEAHGLPLHLPGGSHSGPAPRGPARFLPLPGLPPAPPEPPGILAPQPPDVGSSDPLSMVGPSQGRSPSYAS
Turning to B6, the pERK ICW EC50 stood at 0.1 nmol/L.
